In this assay the target is biotinylated recombinant bovine serum albumin with N-terminal Avi tag (rBSA-Bt) (Bos taurus). Put plainly: SPR.

Chain of streptavidin (P22629 25-183): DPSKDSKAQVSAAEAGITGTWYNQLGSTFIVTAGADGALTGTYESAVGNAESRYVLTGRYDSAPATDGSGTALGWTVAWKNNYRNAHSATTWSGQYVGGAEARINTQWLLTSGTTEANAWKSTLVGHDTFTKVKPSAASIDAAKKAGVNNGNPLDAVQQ

With “streptavidin (from UniProt P22629 25-183) (natural protein)”, the surface density amounted to 28 ng/cm^2.

Source of the values: publication doi:10.1101/2025.06.13.659497.
